Biological target: murine Claudin 18.2 (mCLDN18.2) on stably-transfected HEK293 cells (murine) (UniProt P56857)
Experiment: FACS on HEK293-mCLDN18.2 cells

MFI (Max): 543 MFI
B1: h160C9AA (antibody, human IgG1, lambda, L234A L235A, V domains shown)
VH: EVKLVESGGGLVQPGGSLKLSCAASGFTFNTYAMNWVRQAPGKGLEWVARIRSKYNNYATYYADSVKDRFTISRDDAKNTLYLQMNNLRTEDTAVYYCVRHGNFGNSYVSWFAYWGQGTLVTVSS
VL: QAVVTQEPSLTVSPGGTVTLTCRSSTGAVTTSNYANWVQQKPGQAPRGLIGGTNKRAPGTPARFSGSLLGGKAALTLSGAQPEDEAEYYCALWYSNLWVFGGGTKLTVLG

— US20240010748A1
